Assays:
cynoNectin4 antigen = target: T1, cynoNectin4 antigen (cynomolgus (cyno), UniProt A0A2K5WES1 32-349); experiment: ELISA, coated antigen, PSB pH 7.4
T1 construct: construct not described; also called cynomolgus (cyno) Nectin-4
T1 sequence: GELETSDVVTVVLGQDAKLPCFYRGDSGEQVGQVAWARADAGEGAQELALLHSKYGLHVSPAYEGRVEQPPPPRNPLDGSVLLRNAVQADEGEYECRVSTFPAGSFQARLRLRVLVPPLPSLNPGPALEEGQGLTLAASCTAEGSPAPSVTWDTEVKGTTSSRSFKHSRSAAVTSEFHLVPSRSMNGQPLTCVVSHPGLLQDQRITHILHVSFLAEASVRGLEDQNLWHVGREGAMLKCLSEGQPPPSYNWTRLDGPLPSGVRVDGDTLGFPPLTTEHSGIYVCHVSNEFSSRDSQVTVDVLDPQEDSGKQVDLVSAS
Method: 1) Coat ELISA plates with 100 μL of 1 μg/mL recombinant human Nectin4 antigen or cynoNectin4 antigen in carbonate-bicarbonate coating buffer. […] 2) Cover plates with sealing film and incubate overnight at 4° C. [0444] 3) Decant plates and tap out residual liquid on a stack of paper towels. [0445] 4) Wash wells twice by dispensing 200 μL of pH 6.0 or pH 7.4 ELISA incubation buffer to the wells and completely aspirate the contents. [0446] 5) Add 200 μL of pH 6.0 or pH 7.4 ELISA incubation buffer to the wells. Cover with sealing film and place the plate onto a plate shaker set to 50 rpm for 60 minutes at room temperature. [0447] 6) Decant plates and tap out residual liquid on a stack of paper towels. […] 7) Serially dilute test articles in 3-fold dilutions starting at 3000 ng/mL in pH 6.0 or pH 7.4 ELISA incubation buffer. […] 8) Add 100 μL/well of diluted test articles to the plates [0450] 9) Cover with sealing film and place the plates onto a plate shaker set to 50 rpm for 60 minutes at room temperature. [0451] 10) Decant plates and tap out residual liquid on a stack of paper towels. [0452] 11) Wash wells three times by dispensing 200 μL of pH 6.0 or pH 7.4 ELISA wash buffer to the wells and completely aspirate the contents. […] 12) Dilute the HRP secondary antibody at 1:2500 in pH 6.0 or pH 7.4 ELISA incubation buffer. [0454] […] 14) Cover with sealing film and place the plates onto a plate shaker set to 50 rpm for 60 minutes at room temperature. […] 15) Decant plates and tap out residual liquid on a stack of paper towels. […] 16) Wash wells three times by dispensing 200 μL of pH 6.0 or pH 7.4 ELISA wash buffer to the wells and completely aspirate the contents. [0458] 17) Dispense 50 μL per well of the TMB substrate solution into all wells of the plates.

[1] = target: T2, recombinant human Nectin4 antigen (human, UniProt Q96NY8 32-349); experiment: pH range ELISA, 30 ng/mL, pH of 50% binding activity
T2 construct: construct not described
T2 sequence (looked up): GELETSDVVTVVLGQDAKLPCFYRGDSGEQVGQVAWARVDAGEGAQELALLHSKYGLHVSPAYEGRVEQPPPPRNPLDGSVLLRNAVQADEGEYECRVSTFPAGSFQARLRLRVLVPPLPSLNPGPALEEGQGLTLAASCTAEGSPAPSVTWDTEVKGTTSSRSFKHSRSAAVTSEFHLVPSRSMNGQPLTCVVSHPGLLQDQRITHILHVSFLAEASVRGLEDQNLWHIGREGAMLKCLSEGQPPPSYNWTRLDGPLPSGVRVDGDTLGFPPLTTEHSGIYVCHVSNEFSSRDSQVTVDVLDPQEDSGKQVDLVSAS
Method: 1) Coat ELISA plates with 100 μL of 1 μg/mL recombinant human Nectin4 antigen in carbonate-bicarbonate coating buffer [0462] 2) Cover plates with sealing film and incubate overnight at 4° C. […] 3) Decant plates and tap out residual liquid on a stack of paper towels [0464] 4) Wash wells twice by dispensing 200 μL of various pH incubation buffer to the wells and completely aspirate the contents [0465] 5) Add 200 μL of various pH incubation buffers (pH5.5, 6.0, 6.2, 6.5, 6.7, 7.0 and 7.4) to the wells. Cover with sealing film and place the plate onto a plate shaker (set to 200 rpm) for 60 minutes at room temperature [0466] 6) Decant plates and tap out residual liquid on a stack of paper towels [0467] 7) Serially dilute test substances in various pH incubation buffers (pH5.5, 6.0, 6.2, 6.5, 6.7, 7.0 and 7.4) to 30 ng/mL [0468] 8) Add 100 μL/well of diluted test substances to the plates [0469] 9) Cover with sealing film and place the plates onto a plate shaker (set to 200 rpm) for 60 minutes at room temperature. [0470] 10) Decant plates and tap out residual liquid on a stack of paper towels. […] 12) Dilute the HRP secondary antibody at 1:2500 in various pH incubation buffers (pH5.5, 6.0, 6.2, 6.5, 6.7, 7.0 and 7.4) [0473] 13) Add 100 μL HRP secondary antibody diluted in various pH incubation buffers (pH5.5, 6.0, 6.2, 6.5, 6.7, 7.0 and 7.4) to each well. […] 14) Cover with sealing film and place the plates onto a plate shaker (set to 200 rpm) for 60 minutes at room temperature. [0475] 15) Decant plates and tap out residual liquid on a stack of paper towels. […] 16) Wash wells three times by dispensing 200 μL of various pH wash buffer (pH5.5, 6.0, 6.2, 6.5, 6.7, 7.0 and 7.4) to the wells and completely aspirating the contents [0477] 17) Dispense 50 μL per well of the TMB substrate solution into all wells of plates.

Binder	EC50 (cynoNectin4 antigen)	pH inflection point [1]
BAP-143-wildtype (antibody, V domains shown, 150 kDa used in SPR; also called BAP143-00-00; benchmark (BM)) VH: EVQLVESGGGLVQPGGSLRLSCAASGFTFSSYNMNWVRQAPGKGLEWVSYISSSSSTIYYADSVKGRFTISRDNAKNSLSLQMNSLRDEDTAVYYCARAYYYGMDVWGQGTTVTVSS VL: DIQMTQSPSSVSASVGDRVTITCRASQGISGWLAWYQQKPGKAPKFLIYAASTLQSGVPSRFSGSGSGTDFTLTISSLQPEDFATYYCQQANSFPPTFGGGTKVEIK	0.0128 µg/mL	
BAP-143-00-01 (antibody, V domains shown, Used as a conjugate with a linker payload (CAB ADC)) VH: EVQLVESGGGLVQPGGSLRLSCAASGFTFSSYNMNWVRQAPGKGLEWVSYISSSSSTIYYADSVKGRFTISRDNAKNSLSLQMNSLRDEDTAVYYCARAYYYGMDVWGQGTTVTVSS VL: DIQMTQSPSSVSASVGDRVTITCRASQGISGWEAWYQQKPGKAPKFLIYAASTLQSGVPSRFSGSGSGTDFTLTISSLQPEDFATYYCQQANSFPPTFGGGTKVEIK		6.58 pH
BAP-143-07-03-12 (antibody, V domains shown, Used as a conjugate with a linker payload (CAB ADC)) VH: EVQLVESGGGLVQPGGSLRLSCAASGFTFSSYNMNWVRQAPGKGLEWVSYISSSSSTIYYADSVKGRFTISRDNAKNSLSLQMNSLRDEDTAVYYCARAYYYGMDKWGQGTTVTVSS VL: DIQMTQSPSSVSASVGDRVTITCRASQGISGWEAWYQQKPGKAPKFLIYAASTLQSGVPSRFSGSGSGTDFTLTISSLQPEDFATYYCQQANSFPPTFGGGTKVEIK	0.086 µg/mL	6.51 pH
BAP-143-06-33-03 (antibody, V domains shown, Used as a conjugate with a linker payload (CAB ADC)) VH: QVQLVQSGAEVKKPGASVKVSCKASGFTFSSYNMNWVRQARGQRLEWIGYISSSSSTIYYADSVKGRFTISRDNSKNTLYLQMNSLRAEDTAVYYCARAYYYGMDKWGQGTLVTVSS VL: DIQMTQSPSSVSASVGDRVTITCRASQGISGWLAWYQQKPGKAPKFLIYAASTLQSGVPSRFSGSGSGTDFTLTISSLQPEDFATYYCQQANSEPPTFGGGTKVEIK	0.0723 µg/mL	6.85 pH
BAP-143-06-24-16 (antibody, V domains shown, Used as a conjugate with a linker payload (CAB ADC)) VH: EVQLVQSGAEVKKPGATVKISCKVSGFTFSSYNMNWIRQSPSRGLEWLGYISSSSSTIYYADSVKGRFTISRDNSKNTLYLQMNSLRAEDTAVYYCARAYYYGDDVWGQGTLVTVSS VL: DIQMTQSPSSVSASVGDRVTITCHASQGISGWLAWYQQKPGKAPKFLIYAASTLQSGVPSRFSGSGSGTDFTLTISSLQPEDFATYYCQQANSFPPTFGGGTKVEIK	0.0282 µg/mL	
BAP-143-06-33-16 (antibody, V domains shown, Used as a conjugate with a linker payload (CAB ADC)) VH: EVQLVQSGAEVKKPGATVKISCKVSGFTFSSYNMNWIRQSPSRGLEWLGYISSSSSTIYYADSVKGRFTISRDNSKNTLYLQMNSLRAEDTAVYYCARAYYYGDDVWGQGTLVTVSS VL: DIQMTQSPSSVSASVGDRVTITCRASQGISGWEAWYQQKPGKAPKFLIYAASTLQSGVPSRFSGSGSGTDFTLTISSLQPEDFATYYCQQANSFPPTFGGGTKVEIK		6.6 pH
